Assay results reported in publication PMC4001774.

Target: CaM-GST on Sepharose beads (UniProt P0DP23)
Experiment: pull-down

human Ano1(ac) (natural protein), sequence (Q5XXA6 whole entry): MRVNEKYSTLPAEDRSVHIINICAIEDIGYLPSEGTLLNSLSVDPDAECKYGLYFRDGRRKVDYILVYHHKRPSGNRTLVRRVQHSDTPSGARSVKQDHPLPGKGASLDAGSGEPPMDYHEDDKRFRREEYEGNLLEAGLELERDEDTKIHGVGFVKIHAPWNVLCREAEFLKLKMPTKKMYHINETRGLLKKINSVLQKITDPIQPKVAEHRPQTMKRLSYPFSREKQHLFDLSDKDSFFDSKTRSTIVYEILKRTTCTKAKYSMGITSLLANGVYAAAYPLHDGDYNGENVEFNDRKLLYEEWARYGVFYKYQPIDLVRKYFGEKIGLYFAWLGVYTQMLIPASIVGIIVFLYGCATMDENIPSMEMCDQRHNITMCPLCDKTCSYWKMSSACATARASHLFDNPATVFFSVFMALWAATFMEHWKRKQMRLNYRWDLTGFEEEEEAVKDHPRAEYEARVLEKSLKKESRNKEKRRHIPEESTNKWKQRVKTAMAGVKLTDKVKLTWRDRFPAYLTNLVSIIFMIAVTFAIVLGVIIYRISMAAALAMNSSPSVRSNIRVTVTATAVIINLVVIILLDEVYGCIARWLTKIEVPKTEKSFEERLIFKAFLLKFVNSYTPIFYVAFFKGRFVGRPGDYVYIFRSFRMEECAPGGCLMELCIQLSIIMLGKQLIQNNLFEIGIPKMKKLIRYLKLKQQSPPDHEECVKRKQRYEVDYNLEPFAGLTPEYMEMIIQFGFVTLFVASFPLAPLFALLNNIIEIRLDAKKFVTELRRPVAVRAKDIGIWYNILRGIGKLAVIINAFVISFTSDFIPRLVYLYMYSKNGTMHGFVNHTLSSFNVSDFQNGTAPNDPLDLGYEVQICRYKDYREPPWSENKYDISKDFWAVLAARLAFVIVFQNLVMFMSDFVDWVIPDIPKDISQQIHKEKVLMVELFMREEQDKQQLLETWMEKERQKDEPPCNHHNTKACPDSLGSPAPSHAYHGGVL
CaMKIIα-Venus, sequence (P11275 whole entry): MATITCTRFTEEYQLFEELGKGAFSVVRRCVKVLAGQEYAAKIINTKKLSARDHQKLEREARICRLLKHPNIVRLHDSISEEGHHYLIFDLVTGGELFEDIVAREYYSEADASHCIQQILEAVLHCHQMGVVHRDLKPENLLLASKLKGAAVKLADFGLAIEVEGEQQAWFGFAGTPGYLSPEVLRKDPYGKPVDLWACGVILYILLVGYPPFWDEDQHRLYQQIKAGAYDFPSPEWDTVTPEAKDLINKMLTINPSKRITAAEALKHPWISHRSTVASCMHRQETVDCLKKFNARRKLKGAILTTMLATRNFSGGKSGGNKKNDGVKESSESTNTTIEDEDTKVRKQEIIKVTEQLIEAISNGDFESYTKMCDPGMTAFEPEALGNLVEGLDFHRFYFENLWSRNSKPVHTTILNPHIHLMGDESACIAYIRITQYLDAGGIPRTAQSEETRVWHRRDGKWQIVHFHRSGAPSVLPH
mAno1-FLAG(3X), sequence (Q8BHY3 whole entry): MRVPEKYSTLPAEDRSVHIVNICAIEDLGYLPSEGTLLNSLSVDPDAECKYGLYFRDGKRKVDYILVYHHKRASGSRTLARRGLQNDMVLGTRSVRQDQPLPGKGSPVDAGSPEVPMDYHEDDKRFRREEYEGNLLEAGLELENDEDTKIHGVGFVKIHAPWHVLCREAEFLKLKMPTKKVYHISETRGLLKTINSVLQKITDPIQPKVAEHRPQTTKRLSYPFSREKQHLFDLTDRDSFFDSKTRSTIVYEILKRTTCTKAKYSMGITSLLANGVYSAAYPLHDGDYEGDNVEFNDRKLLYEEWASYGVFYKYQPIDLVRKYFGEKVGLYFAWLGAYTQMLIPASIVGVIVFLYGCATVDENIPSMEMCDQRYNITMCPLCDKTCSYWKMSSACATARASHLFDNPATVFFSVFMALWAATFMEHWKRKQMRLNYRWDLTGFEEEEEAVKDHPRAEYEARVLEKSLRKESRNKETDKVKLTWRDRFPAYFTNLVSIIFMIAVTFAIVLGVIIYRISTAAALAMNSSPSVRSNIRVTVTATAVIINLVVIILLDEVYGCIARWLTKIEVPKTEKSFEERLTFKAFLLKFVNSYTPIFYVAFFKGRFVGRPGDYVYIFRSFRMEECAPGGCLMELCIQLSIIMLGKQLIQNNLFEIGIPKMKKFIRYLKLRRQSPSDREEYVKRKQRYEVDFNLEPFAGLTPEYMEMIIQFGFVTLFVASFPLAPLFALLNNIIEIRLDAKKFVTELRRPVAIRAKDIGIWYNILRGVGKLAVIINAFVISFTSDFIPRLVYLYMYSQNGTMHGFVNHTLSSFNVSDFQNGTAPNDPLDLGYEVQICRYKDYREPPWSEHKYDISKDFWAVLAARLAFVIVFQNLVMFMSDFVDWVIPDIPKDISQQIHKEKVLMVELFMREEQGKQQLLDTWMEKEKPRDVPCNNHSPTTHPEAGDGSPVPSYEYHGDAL

Substance | percent of the protein in the lysate that bound [%] | fold bound with Ca2+ over without Ca2+ [fold]
mAno1-FLAG(3X) (from UniProt Q8BHY3 1-960) (natural protein) | < 1 | –
human Ano1(ac) (natural protein) | < 1 | 2
CaMKIIα-Venus (from UniProt P11275 1-478) (enzyme) | 100 | 10
